Data published in patent publication US20180155451A1 (published 2018).
Where a chain is given by its changes, count along the chain named.

T1: FcγRIIa type R extracellular domain with C-terminal His tag (human, UniProt P12318 34-217)
T1 construct: extracellular domain; also called FcgRIIa R; FcγRIIa R
T1 sequence (looked up): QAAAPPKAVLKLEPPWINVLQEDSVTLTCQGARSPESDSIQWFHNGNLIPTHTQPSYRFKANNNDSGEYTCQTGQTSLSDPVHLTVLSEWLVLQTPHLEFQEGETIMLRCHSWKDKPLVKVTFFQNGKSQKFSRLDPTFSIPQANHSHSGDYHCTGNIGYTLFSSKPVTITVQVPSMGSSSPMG

T2: FcγRIIb extracellular domain with C-terminal His tag (human, UniProt P31994 43-217)
T2 construct: extracellular domain; also called FcgRIIb
T2 sequence (looked up): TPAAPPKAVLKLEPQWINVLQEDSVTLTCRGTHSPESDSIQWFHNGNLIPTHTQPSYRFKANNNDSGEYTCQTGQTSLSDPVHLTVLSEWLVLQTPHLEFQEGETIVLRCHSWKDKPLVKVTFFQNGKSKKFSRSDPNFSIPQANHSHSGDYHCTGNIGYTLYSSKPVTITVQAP

T3: FcγRIIa type H extracellular domain with C-terminal His tag (human, UniProt P12318 34-217)
T3 construct: extracellular domain; also called FcgRIIa H; FcγRIIa H
T3 sequence (looked up): T1 sequence (looked up) with R134H

B1: GpH7-Kn032/GpH7-Hl032/GpL16-k0 (antibody, human IgG1, kappa)
heavy 1: QVQLVQSGAEVKKPGASVTVSCKASGYTFTDYEMHWIRQPPGEGLEWIGAIDPKTGDTAYSESFQDRVTLTADKSTSTAYMELSSLTSEDTAVYYCTRFYSYTYWGQGTLVTVSSASTKGPSVFPLAPSSKSTSGGTAALGCLVKDYFPEPVTVSWNSGALTSGVHTFPAVLQSSGLYSLSSVVTVPSSSLGTQTYICNVNHKPSNTKVDKKVEPKSCDKTHTCPPCPAPELLGGPDVFLFPPKPKDTLMISRTPEVTCVVVDVSHEDPEVKFNWYVDGVEVHNAKTKPREEQYNSTYRVVSVLTVLHQDWLNGKEYKCKVSNKALPLPEEKTISKAKGQPREPQVCTLPPSRDELTKNQVSLWCLVKGFYPSDIAVEWESNGQPENNYKTTPPVLDSDGSFFLYSKLTVDKSRWQQGNVFSCSVMHEALHNHYTQKSLSLSP
heavy 2: B1 heavy 1 with C347Y, D354C, W364S, L366A, Y405V
light: DIVMTQSPLSLPVTPGEPASISCQASESLVHSNRNTYLHWYLQKPGQSPQLLIYKVSNRFSGVPDRFSGSGSGTDFTLKISRVEAEDVGVYYCSQNTHVPPTFGQGTKVEIERTVAAPSVFIFPPSDEQLKSGTASVVCLLNNFYPREAKVQWKVDNALQSGNSQESVTEQDSKDSTYSLSSTLTLSKADYEKHKVYACEVTHQGLSSPVTKSFNRGEC
notes: also called Kn032/Hl032
B2: GpH7-Kn037/GpH7-Hl036/GpL16-k0 (antibody, human IgG1, kappa)
heavy 1: B1 heavy 1 with G234A, L328A
heavy 2: B1 heavy 1 with G234A, L328A, C347Y, D354C, W364S, L366A, Y405V
light: B1 light
notes: also called Kn037/Hl036
B3: GpH7-Kn045/GpH7-Hl048/GpL16-k0 (antibody, human IgG1, kappa)
heavy 1: B1 heavy 1 with L232Y, L233Y, G234A, D237S, H266D, S296A, L328A, E330I
heavy 2: B1 heavy 1 with G234A, L328K, C347Y, D354C, W364S, L366A, Y405V
light: B1 light
notes: Heterodimerized anti-glypican-3 IgG1; also called Kn045/Hl048
B4: GpH7-Kn045/GpH7-Hl055/GpL16-k0 (antibody, human IgG1, kappa)
heavy 1: B1 heavy 1 with L232Y, L233Y, G234A, D237S, H266D, S296A, L328A, E330I
heavy 2: B1 heavy 1 with G234A, Q293L, L328M, C347Y, D354C, W364S, L366A, Y405V
light: B1 light
notes: Heterodimerized anti-glypican-3 IgG1; also called Kn045/Hl055

Target: T4, FcγRIIIa type V extracellular domain with C-terminal His tag (human, UniProt P08637 17-208)
T4 construct: extracellular domain; also called FcgRIIIa V; FcγRIIIa V
T4 sequence (P08637 17-208 F176V): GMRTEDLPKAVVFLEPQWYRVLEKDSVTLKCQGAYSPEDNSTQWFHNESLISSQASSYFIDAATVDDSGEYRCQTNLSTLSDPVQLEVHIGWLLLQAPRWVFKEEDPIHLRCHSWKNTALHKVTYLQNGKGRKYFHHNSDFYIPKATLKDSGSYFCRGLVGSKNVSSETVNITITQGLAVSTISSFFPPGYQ
Assay: SPR (Biacore T100), antibody captured on antigen-peptide chip, FcγR analyte, 1:1 Langmuir fit
Experimental: (§1) These antibodies were assessed for the binding activity to each FcγR according to the method described in Reference Example 2.
(§2) Analysis of interaction between objective antibody and the FcγR was carried out using Biacore T100 (GE Healthcare). HBS-EP+ (GE Healthcare) was used as the running buffer, and the measurement temperature was set to 25° C. Chips produced by immobilizing the antigen peptide by the amine coupling method to a Series S Sencor Chip CM5 (GE Healthcare), or alternatively, chips produced by allowing preliminarily biotinylated antigen peptides to interact with and immobilize onto a Series S Sensor Chip SA (certified) (GE Healthcare) were used. Antibodies of interest were captured onto an antigen peptide-immobilized chip, and allowed to interact to each FcγR diluted with running buffer. To regenerate and repeatedly use the chip, the antibodies captured on the chip were washed off by reacting 10 mM glycine-HCl, pH 1.5.
(§3) The FcγR-binding activity of each antibody was assessed primarily using as an indicator the FcγR-binding activity and dissociation constant for FcγR.

First: B1
Second: B2
The Kd of the first is 2.2-fold lower: 1.2 nM for the first, 2.6 nM for the second. The first binds more tightly here.

First: B3
Second: B4
The Kd of the first is 1.8-fold higher: 1.3 nM for the first, 0.72 nM for the second. The second binds more tightly here.

Target: T5, FcγRIa extracellular domain with C-terminal His tag (human, UniProt P12314 16-292)
T5 construct: extracellular domain; also called FcgRIa; FcgRI
T5 sequence (P12314 16-292): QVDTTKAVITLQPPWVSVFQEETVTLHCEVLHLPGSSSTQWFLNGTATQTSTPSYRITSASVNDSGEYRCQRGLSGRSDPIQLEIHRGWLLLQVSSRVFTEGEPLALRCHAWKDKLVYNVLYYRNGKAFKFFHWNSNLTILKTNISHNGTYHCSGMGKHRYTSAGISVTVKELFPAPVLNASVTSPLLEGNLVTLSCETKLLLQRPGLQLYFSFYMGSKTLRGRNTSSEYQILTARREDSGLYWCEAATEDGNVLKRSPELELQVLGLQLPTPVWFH
Assay: as above
Experimental: as §1, §2, §3

First: B1
Second: B2
The Kd of the first is 4.3-fold lower: 0.0028 nM for the first, 0.012 nM for the second. The first binds more tightly here.

B3 and B4 are the same in Kd: 0.019 nM for the first, 0.019 nM for the second.

Target: T1, FcγRIIa type R extracellular domain …
Assay: as above
Experimental: as §1, §2, §3

Compared with B1, B2 is 15-fold lower in Kd: 250 nM for the first, 17 nM for the second.

Compared with B3, B4 is 2.7-fold higher in Kd: 4.8 nM for the first, 13 nM for the second.

Target: T6, FcγRIIIa type F extracellular domain with C-terminal His tag (human, UniProt P08637 17-208)
T6 construct: extracellular domain; also called FcgRIIIa F; FcγRIIIa F
T6 sequence (P08637 17-208): as the sequence (P08637 17-208 F176V) above, with V160F counted along it
Assay: as above
Experimental: as §1, §2, §3

First: B1
Second: B2
The Kd of the first is 2.4-fold lower: 4.1 nM for the first, 9.7 nM for the second.

Going from B3 to B4, the Kd falls from 3.7 nM to 1.6 nM (2.3-fold). The second binds more tightly here.

Target: T2, FcγRIIb extracellular domain with …
Assay: as above
Experimental: as §1, §2, §3

Compared with B1, B2 is 1.9-fold lower in Kd: 440 nM for the first, 230 nM for the second. The second binds more tightly here.

First: B3
Second: B4
The Kd of the first is 2.2-fold lower: 110 nM for the first, 240 nM for the second. The first binds more tightly here.

Target: T3, FcγRIIa type H extracellular domain …
Assay: as above
Experimental: as §1, §2, §3

First: B1
Second: B2
The Kd of the first is 17-fold higher: 470 nM for the first, 27 nM for the second. The second binds more tightly here.

Going from B3 to B4, the Kd rises from 11 nM to 29 nM (2.6-fold). The first binds more tightly here.

Target: T4, FcγRIIIa type V extracellular domain …
Assay: SPR (Biacore T100), ratio of KD values
Experimental: as §1, §2, §3

First: B1
Second: B2
The KD ratio of the first is higher: 182 fold (KD of GpH7-Kn033/GpH7-Hl033/GpL16-k0 divided by KD of this antibody) for the first, 84 fold (KD of GpH7-Kn033/GpH7-Hl033/GpL16-k0 divided by KD of this antibody) for the second.

Going from B3 to B4, the KD ratio rises from 170 fold (KD of GpH7-Kn033/GpH7-Hl033/GpL16-k0 divided by KD of this antibody) to 300 fold (KD of GpH7-Kn033/GpH7-Hl033/GpL16-k0 divided by KD of this antibody).

Target: T5, FcγRIa extracellular domain with …
Assay: SPR (Biacore T100), ratio of KD values
Experimental: as §1, §2, §3

Compared with B1, B2 is lower in KD ratio: 24 fold (KD of GpH7-Kn033/GpH7-Hl033/GpL16-k0 divided by KD of this antibody) for the first, 6 fold (KD of GpH7-Kn033/GpH7-Hl033/GpL16-k0 divided by KD of this antibody) for the second.

B3 and B4 are the same in KD ratio: 3.7 fold (KD of GpH7-Kn033/GpH7-Hl033/GpL16-k0 divided by KD of this antibody) for the first, 3.7 fold (KD of GpH7-Kn033/GpH7-Hl033/GpL16-k0 divided by KD of this antibody) for the second.

Target: T1, FcγRIIa type R extracellular domain …
Assay: SPR (Biacore T100), ratio of KD values
Experimental: as §1, §2, §3

First: B1
Second: B2
The KD ratio of the first is lower: 3 fold (KD of GpH7-Kn033/GpH7-Hl033/GpL16-k0 divided by KD of this antibody) for the first, 43 fold (KD of GpH7-Kn033/GpH7-Hl033/GpL16-k0 divided by KD of this antibody) for the second.

First: B3
Second: B4
The KD ratio of the first is higher: 154 fold (KD of GpH7-Kn033/GpH7-Hl033/GpL16-k0 divided by KD of this antibody) for the first, 56 fold (KD of GpH7-Kn033/GpH7-Hl033/GpL16-k0 divided by KD of this antibody) for the second.

Target: T6, FcγRIIIa type F extracellular domain …
Assay: SPR (Biacore T100), ratio of KD values
Experimental: as §1, §2, §3

Compared with B1, B2 is lower in KD ratio: 381 fold (KD of GpH7-Kn033/GpH7-Hl033/GpL16-k0 divided by KD of this antibody) for the first, 161 fold (KD of GpH7-Kn033/GpH7-Hl033/GpL16-k0 divided by KD of this antibody) for the second.

Going from B3 to B4, the KD ratio rises from 419 fold (KD of GpH7-Kn033/GpH7-Hl033/GpL16-k0 divided by KD of this antibody) to 985 fold (KD of GpH7-Kn033/GpH7-Hl033/GpL16-k0 divided by KD of this antibody).

Target: T2, FcγRIIb extracellular domain with …
Assay: SPR (Biacore T100), ratio of KD values
Experimental: as §1, §2, §3

First: B1
Second: B2
The KD ratio of the first is lower: 8.2 fold (KD of GpH7-Kn033/GpH7-Hl033/GpL16-k0 divided by KD of this antibody) for the first, 16 fold (KD of GpH7-Kn033/GpH7-Hl033/GpL16-k0 divided by KD of this antibody) for the second.

First: B3
Second: B4
The KD ratio of the first is higher: 34 fold (KD of GpH7-Kn033/GpH7-Hl033/GpL16-k0 divided by KD of this antibody) for the first, 15 fold (KD of GpH7-Kn033/GpH7-Hl033/GpL16-k0 divided by KD of this antibody) for the second.

Target: T3, FcγRIIa type H extracellular domain …
Assay: SPR (Biacore T100), ratio of KD values
Experimental: as §1, §2, §3

Compared with B1, B2 is higher in KD ratio: 1.2 fold (KD of GpH7-Kn033/GpH7-Hl033/GpL16-k0 divided by KD of this antibody) for the first, 22 fold (KD of GpH7-Kn033/GpH7-Hl033/GpL16-k0 divided by KD of this antibody) for the second.

Going from B3 to B4, the KD ratio falls from 52 fold (KD of GpH7-Kn033/GpH7-Hl033/GpL16-k0 divided by KD of this antibody) to 21 fold (KD of GpH7-Kn033/GpH7-Hl033/GpL16-k0 divided by KD of this antibody).
